Experiments:
Experiment in all cases: potentiometry
[1] = target: Asp8 (position 8, AVMLKDEH---); details: 298 K; 0.1 M NaClO4; none (4 mM HClO4, titrated with 0.1 M carbonate-free NaOH); metal-free peptide, largely unstructured
[2] = target: Glu9 (position 9, VMLKDEH----); details: 298 K; 0.1 M NaClO4; none (4 mM HClO4, titrated with 0.1 M carbonate-free NaOH); metal-free peptide, largely unstructured
[3] = target: His10 (position 10, MLKDEH-----); details: 298 K, 0.1 M NaClO4
Lys7 (position 7, …--) = details: 298 K, 0.1 M NaClO4
[4] = target: Nterm1 (position 1, -----GTAVML); details: 298 K, 0.1 M NaClO4
[5] = target: Asp10 (position 10, LAKGED-----); details: 298 K; 0.1 M NaClO4; none (4 mM HClO4, titrated with 0.1 M carbonate-free NaOH); metal-free peptide, largely unstructured
[6] = target: Glu9 (position 9, VLAKGED----); details: 298 K, 0.1 M NaClO4
[7] = target: His2 (position 2, ----THMVLAK); details: 298 K, 0.1 M NaClO4
[8] = target: Lys7 (position 7, HMVLAKGED--); details: 298 K, 0.1 M NaClO4
[9] = target: Nterm1 (position 1, -----THMVLA); details: 298 K, 0.1 M NaClO4
[10] = target: Asp1 (position 1, -----DEHGTA); details: 298 K; 0.1 M NaClO4; none (4 mM HClO4, titrated with 0.1 M carbonate-free NaOH); metal-free peptide, largely unstructured
[11] = target: Glu2 (position 2, ----DEHGTAV); details: 298 K, 0.1 M NaClO4
[12] = target: His3 (position 3, ---DEHGTAVM); details: 298 K, 0.1 M NaClO4
[13] = target: Lys10 (position 10, TAVMLK-----); details: 298 K, 0.1 M NaClO4
[14] = target: Nterm1 (position 1, -----DEHGTA); details: 298 K, 0.1 M NaClO4
Asp5 (position 5, -…) = details: 298 K; 0.1 M NaClO4; none (4 mM HClO4, titrated with 0.1 M carbonate-free NaOH); metal-free peptide, largely unstructured
Glu6 (position 6, …-) = details: 298 K; 0.1 M NaClO4; none (4 mM HClO4, titrated with 0.1 M carbonate-free NaOH); metal-free peptide, largely unstructured
His7 (position 7, …--) = details: 298 K, 0.1 M NaClO4
[15] = target: Lys9 (position 9, LDEHAKG----); details: 298 K, 0.1 M NaClO4
[16] = target: Nterm1 (position 1, -----TMVLDE); details: 298 K, 0.1 M NaClO4
[17] = target: Asp1 (position 1, -----DEHGGG); details: 298 K; 0.1 M NaClO4; none (4 mM HClO4, titrated with 0.1 M carbonate-free NaOH); metal-free peptide, largely unstructured
[18] = target: Asp8 (position 8, HGGGGDEH---); details: 298 K; 0.1 M NaClO4; none (4 mM HClO4, titrated with 0.1 M carbonate-free NaOH); metal-free peptide, largely unstructured
[19] = target: Glu2 (position 2, ----DEHGGGG); details: 298 K; 0.1 M NaClO4; none (4 mM HClO4, titrated with 0.1 M carbonate-free NaOH); metal-free peptide, largely unstructured
[20] = target: Glu9 (position 9, GGGGDEH----); details: 298 K; 0.1 M NaClO4; none (4 mM HClO4, titrated with 0.1 M carbonate-free NaOH); metal-free peptide, largely unstructured
[21] = target: His10 (position 10, GGGDEH-----); details: 298 K, 0.1 M NaClO4
[22] = target: His3 (position 3, ---DEHGGGGD); details: 298 K, 0.1 M NaClO4
[23] = target: Nterm1 (position 1, -----DEHGGG); details: 298 K, 0.1 M NaClO4
[24] = none (4 mM HClO4, titrated with 0.1 M carbonate-free NaOH), metal-free peptide, largely unstructured
[25] = none (4 mM HClO4, titrated with NaOH), Mn(II)-bound, Mn(II):peptide 1:1.1, [Mn(II)]tot = 0.5 mM
[26] = none (4 mM HClO4, titrated with NaOH), Cu(II)-bound, Cu(II):peptide 1:1.1, [Cu(II)]tot = 1 mM

B1: Term-DEH decapeptide (GTAVMLKDEH) (synthetic construct (Deinococcus radiodurans-inspired)) (peptide)
chain: GTAVMLKDEH
Q: What does the source list for B1?
A: pKa [1]: 3.46; pKa [2]: 4.31; pKa [3, 24]: 7.02; pKa [3, 25]: 7.08; pKa (Lys7 (position 7, …--); [24]): 10.82(1); pKa (Lys7 (position 7, …--); [26]): 11.05; pKa [4, 24]: 8.16; pKa [4, 26]: 5.34; pKa [4, 25]: 7.79

B2: DP2 decapeptide (THMVLAKGED) (synthetic construct (scrambled DP1; Deinococcus radiodurans-inspired)) (peptide)
chain: THMVLAKGED
Q: B2 was tested. Which pKa [5] did it give?
A: Its pKa is 3.89.

Q: And the pKa [6, 24]?
A: The pKa was 4.70.

Q: And the pKa [6, 26]?
A: Its pKa is 4.91.

Q: What about the pKa [7, 24] of the same protein?
A: The pKa was 5.91.

Q: What about the pKa [7, 25] of the same protein?
A: The pKa was 5.40.

Q: What about the pKa [8, 24] of the same protein?
A: The pKa was 9.86(1).

Q: And the pKa [8, 26]?
A: The pKa was 9.87.

Q: And the pKa [8, 25]?
A: Its pKa is 8.29.

Q: What about the pKa [9, 24] of the same protein?
A: The pKa was 7.01.

Q: And the pKa [9, 25]?
A: Its pKa is 6.59.

B3: DP1 decapeptide (DEHGTAVMLK) (synthetic construct (designed from amino-acid content of Deinococcus radiodurans cell-free extract)) (peptide)
chain: DEHGTAVMLK
Q: Which pKa [10] does the source give for B3 here?
A: Its pKa is 3.06.

Q: What about the pKa [11, 24] of the same protein?
A: Its pKa is 4.20.

Q: What about the pKa [11, 26] of the same protein?
A: Its pKa is 4.17.

Q: What about the pKa [12, 24] of the same protein?
A: The pKa was 6.47.

Q: And the pKa [12, 25]?
A: Its pKa is 6.11.

Q: What about the pKa [13, 24] of the same protein?
A: The pKa was 9.62(3).

Q: What about the pKa [13, 26] of the same protein?
A: Its pKa is 9.00.

Q: And the pKa [13, 25]?
A: Its pKa is 8.96.

Q: And the pKa [14, 24]?
A: The pKa was 7.85.

Q: What about the pKa [14, 25] of the same protein?
A: Its pKa is 7.5.

B4: Mid-DEH decapeptide (TMVLDEHAKG) (synthetic construct (Deinococcus radiodurans-inspired)) (peptide)
chain: TMVLDEHAKG
Q: B4 was tested. Which pKa (Asp5 (position 5, -…)) did it give?
A: Its pKa is 3.55.

Q: What about the pKa (Glu6 (position 6, …-)) of the same protein?
A: Its pKa is 4.06.

Q: What about the pKa (His7 (position 7, …--); [24]) of the same protein?
A: Its pKa is 6.29.

Q: What about the pKa (His7 (position 7, …--); [25]) of the same protein?
A: Its pKa is 6.42.

Q: And the pKa [15, 24]?
A: The pKa was 10.52(1).

Q: And the pKa [15, 26]?
A: Its pKa is 11.20.

Q: And the pKa [15, 25]?
A: Its pKa is 9.8.

Q: What about the pKa [16, 24] of the same protein?
A: The pKa was 7.33.

Q: And the pKa [16, 26]?
A: The pKa was 4.59.

Q: What about the pKa [16, 25] of the same protein?
A: Its pKa is 7.21.

B5: Bis-DEH decapeptide (DEHGGGGDEH) (synthetic construct (Deinococcus radiodurans-inspired)) (peptide)
chain: DEHGGGGDEH
Q: Which pKa [17] does the source give for B5 here?
A: The pKa was 2.67.

Q: And the pKa [18]?
A: Its pKa is 3.36.

Q: And the pKa [19]?
A: The pKa was 4.05.

Q: And the pKa [20]?
A: Its pKa is 4.69.

Q: What about the pKa [21, 24] of the same protein?
A: The pKa was 7.41.

Q: What about the pKa [21, 26] of the same protein?
A: The pKa was 7.73.

Q: And the pKa [21, 25]?
A: The pKa was 6.37.

Q: What about the pKa [22, 24] of the same protein?
A: The pKa was 6.67.

Q: And the pKa [22, 25]?
A: The pKa was 7.25.

Q: What about the pKa [23, 24] of the same protein?
A: The pKa was 8.41.

Q: What about the pKa [23, 25] of the same protein?
A: Its pKa is 7.82.

From paper PMC7467671
